Data on two proteins can be found in patent US20090305255.

In data set [1] the target is SAKI (Substrate of AIM-1 kinase).
Chain of SAKI (Substrate of AIM-1 kinase) (chain, as listed by the source): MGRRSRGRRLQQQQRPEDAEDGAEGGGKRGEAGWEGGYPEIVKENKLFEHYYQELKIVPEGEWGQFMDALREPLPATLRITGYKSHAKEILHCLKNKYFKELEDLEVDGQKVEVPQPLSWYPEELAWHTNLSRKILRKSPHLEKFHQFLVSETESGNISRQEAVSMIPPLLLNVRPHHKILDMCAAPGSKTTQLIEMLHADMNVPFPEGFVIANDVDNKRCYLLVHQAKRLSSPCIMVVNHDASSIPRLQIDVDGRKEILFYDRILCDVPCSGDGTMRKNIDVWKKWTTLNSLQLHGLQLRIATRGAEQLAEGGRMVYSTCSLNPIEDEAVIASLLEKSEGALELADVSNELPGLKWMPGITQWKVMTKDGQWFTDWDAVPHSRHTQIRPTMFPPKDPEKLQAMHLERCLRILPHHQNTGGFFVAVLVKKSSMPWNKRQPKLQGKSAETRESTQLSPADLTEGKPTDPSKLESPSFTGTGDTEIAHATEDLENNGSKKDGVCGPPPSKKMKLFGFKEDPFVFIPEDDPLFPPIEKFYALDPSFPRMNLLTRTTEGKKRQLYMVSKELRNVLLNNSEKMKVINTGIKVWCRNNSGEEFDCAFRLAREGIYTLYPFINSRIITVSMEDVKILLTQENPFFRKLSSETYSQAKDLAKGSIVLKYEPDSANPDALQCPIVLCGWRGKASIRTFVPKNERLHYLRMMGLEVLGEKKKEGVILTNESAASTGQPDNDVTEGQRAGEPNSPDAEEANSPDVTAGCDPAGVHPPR

B1: Aik (protein)
chain: MDRSKENCISGPVKATAPVGGPKRVLVTQQFPCQNPLPVNSGQAQRVLCPSNSSQRIPLQAQKLVSSHKPVQNQKQKQLQATSVPHPVSRPLNNTQKSKQPLPSAPENNPEEELASKQKNEESKKRQWALEDFEIGRPLGKGKFGNVYLAREKQSKFILALKVLFKAQLEKAGVEHQLRREVEIQSHLRHPNILRLYGYFHDATRVYLILEYAPLGTVYRELQKLSKFDEQRTATYITELANALSYCHSKRVIHRDIKPENLLLGSAGELKIADFGWSVHAPSSRRTTLCGTLDYLPPEMIEGRMHDEKVDLWSLGVLCYEFLVGKPPFEANTYQETYKRISRVEFTFPDFVTEGARDLISRLLKHNPSQRPMLREVLEHPWITANSSKPSNCQNKESASKQS
B1: the in-vitro phosphorylation experiments result in the data set with H3 histone, P68431 was “both AIM-1 and Aik phosphorylated H3 histone”.

B2: AIM-1 (Aurora and Ipl1-like midbody-associated protein) (protein)
chain: MAQKENSYPWPYGRQTAPSGLSTLPQRVLRKEPVTPSALVLMSRSNVQPTAAPGQKVMENSSGTPDILTRHFTIDDFEIGRPLGKGKFGNVYLAREKKSHFIVALKVLFKSQIEKEGVEHQLRREIEIQAHLHHPNILRLYNYFYDRRRIYLILEYAPRGELYKELQKSCTFDEQRTATIMEELADALMYCHGKKVIHRDIKPENLLLGLKGELKIADFGWSVHAPSLRRKTMCGTLDYLPPEMIEGRMHNEKVDLWCIGVLCYELLVGNPPFESASHNETYRRIVKVDLKFPASVPMGAQDLISKLLRHNPSERLPLAQVSAHPWVRANSRRVLPPSALQSVA
In the case of B2, in the data set with H3 histone, P68431, the in-vitro phosphorylation experiments result is “both AIM-1 and Aik phosphorylated H3 histone”. In addition, the “immunoblotting with the anti-H3 histone Ser-10 phosphorylation site antibody after expression of the AIM-1 kinase-deficient mutant protein in HeLa” value in data set [1] is given as “there was a protein that is seemingly phosphorylated by AIM-1 in the region close to 100 kDa”.
